Assay results: patent CN116496388A (BRAVOVAX CO LTD; SHANGHAI BOWO BIOTECHNOLOGY CO LTD, dated 2023)

Tests used:
野生型人5型腺病毒的Hexon蛋白 [1] = molecular target: T1, 野生型人5型腺病毒的Hexon蛋白 (人5型腺病毒 (human adenovirus type 5), UniProt P04133 2-952); test: Western blot, reduced virus lysate
T1 construct: also called 野生型人腺病毒5型

野生型人5型腺病毒的Hexon蛋白 [2] = molecular target: T1, 野生型人5型腺病毒的Hexon蛋白; test: cell immunostaining of virus-infected 293A cells

T1 sequence (P04133 2-952): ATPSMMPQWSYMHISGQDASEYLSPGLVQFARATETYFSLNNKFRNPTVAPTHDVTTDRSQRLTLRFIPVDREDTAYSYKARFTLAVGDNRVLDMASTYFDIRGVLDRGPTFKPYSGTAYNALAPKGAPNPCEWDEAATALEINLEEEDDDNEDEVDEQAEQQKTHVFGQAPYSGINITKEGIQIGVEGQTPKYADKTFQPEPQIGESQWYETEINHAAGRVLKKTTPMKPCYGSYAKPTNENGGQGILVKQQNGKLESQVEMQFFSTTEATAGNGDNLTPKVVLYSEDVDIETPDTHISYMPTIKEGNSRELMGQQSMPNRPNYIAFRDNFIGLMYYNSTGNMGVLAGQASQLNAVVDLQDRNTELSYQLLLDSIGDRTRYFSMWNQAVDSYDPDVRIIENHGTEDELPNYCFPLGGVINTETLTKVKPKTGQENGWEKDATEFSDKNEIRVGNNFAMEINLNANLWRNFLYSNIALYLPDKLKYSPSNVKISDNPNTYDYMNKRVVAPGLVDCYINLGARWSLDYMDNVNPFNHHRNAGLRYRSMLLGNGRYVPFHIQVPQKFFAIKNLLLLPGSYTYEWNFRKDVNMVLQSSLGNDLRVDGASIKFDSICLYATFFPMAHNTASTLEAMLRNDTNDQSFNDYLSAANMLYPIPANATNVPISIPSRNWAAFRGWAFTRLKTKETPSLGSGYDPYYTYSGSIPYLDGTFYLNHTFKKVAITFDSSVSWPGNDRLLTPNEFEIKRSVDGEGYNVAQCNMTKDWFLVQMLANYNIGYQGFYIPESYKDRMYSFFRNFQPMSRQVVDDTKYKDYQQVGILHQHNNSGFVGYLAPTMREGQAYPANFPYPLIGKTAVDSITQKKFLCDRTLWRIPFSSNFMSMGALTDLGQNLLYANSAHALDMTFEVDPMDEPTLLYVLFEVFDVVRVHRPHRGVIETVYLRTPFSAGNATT

Row | Binder | binding result (野生型人5型腺病毒的Hexon蛋白 [1]) | binding result (野生型人5型腺病毒的Hexon蛋白 [2])
1 | AdC68-Hexon单克隆抗体 (hybridoma-derived, purified from mouse ascites) (antibody, V domains shown, Mouse IgG1 (all positive hybridomas were IgG1); also called 抗AdC68-Hexon单克隆抗体; 亲本鼠源抗体) VH: EVQLVETGGGLVQPKGSLKLSCAVSGLPFNTKAMDWVRQAPGEGLEWVARIRTKSNNYATYYADSVKDRFTISRDDAQSMLYLQMTNLKTEDTAMYYCVRDEASWGHGTLVTVSA VL: DIVMTQIPLSLPVSLGDQASISCRSSQSLVHSDGNTYLHWYLQKPGQSPKLLIYKVSNRFSGVPDRFSGSGSGTDFTLKISRVEAEDLGVYFCSQSTHFPWTFGGGTKLEIK | no binding (tested: antibody diluted 1:10000) | –
2 | 重组抗AdC68-Hexon小鼠单克隆抗体 (antibody, V domains shown, domain: 小鼠IgGκ轻链恒定区; Expressed in HEK293, assembled as IgG1k, Protein A purified; also called 重组单克隆抗体; 重组抗AdC68-Hexon鼠单克隆抗体; not shown: mouse IgG1 heavy chain constant region (IgG1CH, GenBank No. NC_000078.7, a genomic entry)) VH: EVQLVETGGGLVQPKGSLKLSCAVSGLPFNTKAMDWVRQAPGEGLEWVARIRTKSNNYATYYADSVKDRFTISRDDAQSMLYLQMTNLKTEDTAMYYCVRDEASWGHGTLVTVSA VL: DIVMTQIPLSLPVSLGDQASISCRSSQSLVHSDGNTYLHWYLQKPGQSPKLLIYKVSNRFSGVPDRFSGSGSGTDFTLKISRVEAEDLGVYFCSQSTHFPWTFGGGTKLEIKR | – | no binding
